Source: patent US20200407452A1 (published 2020)

Experiments:
[1] = biological target: T1, native human MET on living cells (human, UniProt P08581 25-1390); experiment: cell-based or functional assay
[2] = biological target: T2, native mouse MET on living cells (mouse, UniProt P16056 25-1379); experiment: cell-based or functional assay
[3] = biological target: T1, native human MET on living cells; experiment: cell-based or functional assay; remark: listed apart in the source
[4] = biological target: T2, native mouse MET on living cells; experiment: cell-based or functional assay; remark: listed apart in the source
[5] = biological target: T3, human MET ECD (human, UniProt P08581 25-932); experiment: ELISA, MET ECD coated, mAb 0-20 nM
T3 construct: range 1-932; recombinant; range as printed includes the signal peptide; also called hMET; hMET ECD
Description: (§1) Production (by transient transfection of mammalian cells) and purification (by protein A affinity chromatography) of the resulting chimeric llama-human IgG1 molecules was outsourced to U-protein Express. Binding of chimeric mAbs to MET was determined by ELISA using hMET or mMET ECD in solid phase and increasing concentrations of antibodies (0-20 nM) in solution. […] Binding capacity (EMAX) varied from antibody to antibody, possibly due to partial epitope exposure in the immobilized antigen, but was similar in the human and mouse setting.

[6] = biological target: T4, mouse MET ECD (mouse, UniProt P16056 25-931); experiment: ELISA, MET ECD coated, mAb 0-20 nM
T4 construct: range 1-931; recombinant; range as printed includes the signal peptide; also called mMET; mMET ECD
Description: as §1

[7] = biological target: T1, native human MET on living cells; experiment: cell-based or functional assay; remark: listed apart in the source
[8] = biological target: T2, native mouse MET on living cells; experiment: cell-based or functional assay; remark: listed apart in the source
[9] = biological target: T3, human MET ECD; experiment: ELISA, WT or mutant hMET ECD coated
Description: Using human MET as a template, we mutagenized each of these residues in different permutations, generating a series of MET mutants that are fully human except for specific residues, which are llama. Next, we tested the affinity of selected SEMA-binding mAbs (71D6, 71C3, 71D4, 71A3, 71G2) and PSI-binding mAbs (76H10 and 71G3) for these MET mutants by ELISA. To this end, the various MET proteins were immobilized in solid phase (100 ng/well in a 96-well plate) and then exposed to increasing concentrations of antibodies (0-50 nM) solution. […] Wild-type human MET was used as positive control.
TABLE 24 The epitopes of MET responsible for agonistic antibody binding represent residues conserved among H. sapiens, M. musculus, R. norvegicus, M. fascicularis but not among the same species and L. glama. The relevance of residues conserved among human, mouse, rat, cynomolgus monkey but not llama MET for binding to agonistic mAbs was tested by ELISA. Wild-type (WT) or mutant (MT) human MET ECD was immobilized in solid phase and exposed to increasing concentrations of mAbs in solution. […] All binding values were normalized to the WT protein and are expressed as % binding (EMAX) compared to WT MET.

[10] = biological target: T1, native human MET on living cells; experiment: FACS, A549 cells
[11] = biological target: human MET ECD mutant E (mutations 2, 3, 4) (human) (UniProt P08581); experiment: ELISA, WT or mutant hMET ECD coated
[12] = biological target: human MET ECD mutant D (mutations 1, 2) (human) (UniProt P08581); experiment: ELISA, WT or mutant hMET ECD coated
[13] = biological target: human MET ECD mutant A (mutations 1, 2, 3) (human) (UniProt P08581); experiment: ELISA, WT or mutant hMET ECD coated
[14] = biological target: human MET ECD mutant H (mutations 2, 4) (human) (UniProt P08581); experiment: ELISA, WT or mutant hMET ECD coated
[15] = biological target: T2, native mouse MET on living cells; experiment: FACS, MLP29 cells

Row | Binder | protection from staurosporine-induced apoptosis EC50, MCF10A cells [1] [nM] | protection from staurosporine-induced apoptosis EMAX, MCF10A cells [1] [%] | protection from staurosporine-induced apoptosis EC50, MLP29 cells [2] [nM] | protection from staurosporine-induced apoptosis EMAX, MLP29 cells [2] [%] | phospho-MET ELISA EMAX, A549 cells [3] [% HGF activity] | phospho-MET ELISA EMAX, MLP29 cells [4] [% HGF activity] | EMAX [5] [OD450 AU] | EMAX [6] [OD450 AU] | LOC br. m. (branch n.) [7] [branches per spheroid] | MLP29 br. m. (branch n.) [8] [branches per spheroid] | % binding (EMAX) vs WT MET ECD [9] [%] | EMAX [10] [% CTR] | A549 MET act. (EMAX, % HGF) [7] [% HGF] | MLP29 MET act. (EMAX, % HGF) [8] [% HGF] | % binding (EMAX) vs WT MET ECD [11] [%] | % binding (EMAX) vs WT MET ECD [12] [%] | % binding (EMAX) vs WT MET ECD [13] [%] | % binding (EMAX) vs WT MET ECD [14] [%] | EMAX [15] [% CTR]
1 | 72F8 chimeric llama-human IgG1 mAb (antibody, V domains shown, human IgG1 CH1-CH2-CH3 and human CL lambda) VH: ELQLVESGGGLVQPGGSLRLSCAASGFTFSNYVMSWVRQAPGKGLEWVSDTNSGGSTSYADSVKGRFTISRDNAKNTLYLQMNSLKPEDTALYYCARSFFYGMNYWGKGTQVTVSS VL: QSALTQPPSLSASPGSSVRLTCTLSSGNNIGSYDISWYQQKAGSPPRYLLNYYTDSRKHQDSGVPSRFSGSKDASANAGLLLISGLQPEDEADYYCSAYKSGSYRWVFGGGTHVTVL | > 32 | 35.8 | > 32 | 43.8 | 69.7 | 66.8 | 2.78 | 2.9 |  |  |  |  |  |  |  |  |  |  | 
2 | 71G3 llama-mouse chimeric mAb (mouse IgG1/lambda) (antibody, V domains shown) VH: QVQLVESGGGLVQPGGSLRVSCAASGFTFSTYYMSWVRQAPGKGLEWVSDIRTDGGTYYADSVKGRFTMSRDNAKNTLYLQMNSLKPEDTALYYCARTRIFPSGYDYWGQGTQVTVSS VL: QAVVTQEPSLSVSPGGTVTLTCGLSSGSVTTSNYPGWFQQTPGQAPRTLIYNTNSRHSGVPSRFSGSISGNKAALTIMGAQPEDEADYYCSLYPGSTTVFGGGTHLTVLG |  |  |  |  |  |  |  |  | 20.8 | 30.1 |  |  |  |  |  |  |  |  | 
3 | 71G2 chimeric llama-human IgG1 mAb (antibody, V domains shown, human IgG1 CH1-CH2-CH3 and human CL lambda; also called 71G2 Human IgG1/lambda) VH: EVQLQESGGGLVQPGGSLRLSCAASGFTFSIYDMSWVRQAPGKGLEWVSTINSDGSSTSYVDSVKGRFTISRDNAKNTLYLQMNSLKPEDTAVYYCAKVYGSTWDVGPMGYGMDYWGKGTLVTVSS VL: SSALTQPSALSVSLGQTARITCQGGSLGSSYAHWYQQKPGQAPVLVIYGDDSRPSGIPERFSGSSSGGTATLTISGAQAEDEDDYYCQSTDSSGNTVFGGGTRLTVL | 1.06 | 64.8 | 1.99 | 58.3 | 101 | 110 | 3.09 | 3.17 | 31.7 | 45 | 100 | 137 | 106 | 110 | 41.4 | 114 | 92.1 | 40.2 | 131
4 | 71G2 llama-mouse chimeric mAb (mouse IgG1/lambda) (antibody, V domains shown) VH: EVQLQESGGGLVQPGGSLRLSCAASGFTFSIYDMSWVRQAPGKGLEWVSTINSDGSSTSYVDSVKGRFTISRDNAKNTLYLQMNSLKPEDTAVYYCAKVYGSTWDVGPMGYGMDYWGKGTLVTVSS VL: SSALTQPSALSVSLGQTARITCQGGSLGSSYAHWYQQKPGQAPVLVIYGDDSRPSGIPERFSGSSSGGTATLTISGAQAEDEDDYYCQSTDSSGNTVFGGGTRLTVLG |  |  |  |  |  |  |  |  | 29.8 | 41.2 |  |  |  |  |  |  |  |  | 
5 | 71C3 chimeric llama-human IgG1 mAb (antibody, V domains shown, human IgG1 CH1-CH2-CH3 and human CL lambda) VH: QLQLVESGGGLVQPGGSLRLSCAASGFTFSSHAMSWVRQAPGKGLEWVSAINSGGGSTSYADSVKGRFTISRDNAKNTLYLQMNSLKPEDTAVYYCAKELRFDLARYTDYEAWDYWGQGTQVTVSS VL: SYELTQPSALSVTLGQTAKITCQGGSLGSSYAHWYQQKPGQAPVLVIYDDDSRPSGIPERFSGSSSGGTATLTISGAQAEDEGDYYCQSADSSGNAAVFGGGTHLTVL | 31.9 | 50.2 | 31 | 51.3 | 86.2 | 98.8 | 2.46 | 2.24 |  |  | 100 |  |  |  | 59.6 | 102 | 99.8 | 61.6 | 
6 | 71A3 chimeric llama-human IgG1 mAb (antibody, V domains shown, human IgG1 CH1-CH2-CH3 and human CL lambda) VH: EVQLVESGGGLVQPGGSLRLSCAASGFSFKDYDITWVRQAPGKGLEWVSTITSRSGSTSYVDSVKGRFTISGDNAKNTLYLQMNSLKPEDTAVYYCAKVYATTWDVGPLGYGMDYWGKGTLVTVSS VL: SYELTQPSALSVTLGQTAKITCQGGSLGSSYAHWYQQKPGQAPVLVIYDDDSRPSGIPERFSGSSSGGTATLTISGAQAEDEGDYYCQSADSSGNAAVFGGGTHLTVL | < 0.5 | 71.7 | < 0.5 | 70.5 | 86.6 | 96 | 2.4 | 2.73 |  |  | 100 |  |  |  | 65.4 | 128 | 117 | 76.7 | 
7 | 71D4 chimeric llama-human IgG1 mAb (antibody, V domains shown, human IgG1 CH1-CH2-CH3 and human CL lambda) VH: ELQLVESGGGLVQPGGSLRLSCAASGFTFSGYGMSWVRQAPGKGLEWVSDINSGGGSTSYADSVKGRFTISRDNAKNTLYLQMNSLKPEDTAVYYCAKDMRLYLARYNDYEAWDYWGQGTQVTVSS VL: SSALTQPSALSVTLGQTAKITCQGGSLGSSYAHWYQQKPGQAPVLVIYDDDSRPSGIPERFSGSSSGGTATLTISGAQAEDEGDYYCQSADSSGNAAVFGGGTHLTVL | 30.2 | 51.7 | 29.8 | 52.1 | 84.6 | 95.3 | 1.43 | 1.17 |  |  | 100 |  |  |  | 57.2 | 120 | 114 | 58.7 | 
